According to article PMC11844185 (Journal of Translational Medicine, 2025):

B1: SWA9 (antibody, V domains shown)
VH: QMQLVQSGPEVKKPGTSVKVSCKASGFTFTNSAMQWVRQARGQRLEWVGWIVVASGNANSARRFHDRVTITSDMSTSTAYLELSSLRSEDTAVYYCALNHCSNTTCLDGFDIWGQGTMVSVSS
VL: EIVLTQSPVTLSLSPGERATLSCRASQSVRNSLLAWYQQKPGQAPRLLIYAASSRATGIPDRFSGSGSGTDFTLTISRLEPEDFVVYYCQQHGSSPPWTFGQGTKVEFK
B2: 2YYQH9 (antibody, V domains shown)
VH: EVQLVESGGGLIQPGGSLRLSCAASGVTVIRNYMTWVRQAPGKGLEWVSVIYPGGTTYYADSVKGRFTISRDSSKNTLYLQMNSLRAEDAAVYFCARAYGDYYFDLWGQGTLLTVSS
VL: EMVMTQSPASLSLSPGERATLSCRASQGVDSSYLAWYQQKPGQAPRLLMYGASSRATGIPDRFSGSGYGTDFTLTISRVEPEDFAVYYCQVAFTFGQGTKVEIK
B3: SWC11 (antibody, V domains shown)
VH: EVQLVESGGGLIQPGGSLRLSCAASEFIVSRNYMSWVRQAPGTGLEWVSVIYPGGSTFYADSVKGRFTISRDNSKNTLYLQMDSLRVEDTAVYYCARDYGDFYFDYWGQGTLVTVSS
VL: EIVMTQSPVSLSVSPGERATLSCRASQGVASNLAWYQQKAGQAPRLLIYGASTRATGIPARFSGSGSGTEFTLTISTLQSEDSAVYYCQQYNDRPRTFGQGTKLEIK

Assays:
[1] = biological target: T1, SARS-CoV-2 prototype RBD-His tag protein (Severe acute respiratory syndrome …, UniProt P0DTC2); experiment: cell-based or functional assay
[2] = biological target: T1, SARS-CoV-2 prototype RBD-His tag protein; experiment: SPR

| Binder | neutralisation of SARS-CoV-2 prototype pseudovirus, IC50 [1] [µg/mL] | Kd [2] [nM] |
| --- | --- | --- |
| B1 | < 0.1 | 0.345 |
| B2 | < 0.1 | 0.428 |
| B3 | < 0.1 | 0.627 |
